Data on eleven molecules can be found in patent publication US20230242902A1, “A HIGHLY ERROR-PRONE […] R[…] FOR TARGETED CONTINUOUS EVOLUTION IN VIVO” (The Regents of the University of California, priority 2017, published 2023).

Substitutions are numbered along the chain they refer to. Names and notes keep the numbering of the source.

The chains are these.
B1: E298H: TP-DNAP1 variant (protein)
chain: MDYKDKALNDLRNVYADFDSLPLDFRQILIKDRATLLQKEDVEKKILERQEDAKKYAEYLKQSEIPERISLPNIKRHKGVSISFEETSEDMVLEPRPFIFDGLNIRCFRRETIFSLKNKILNMVKESSSFKNVSRQSVSFMYFKIFNKGKVIASTKSVNIYEDKIDERLEDLCNNFDDVLKKIIDVTYGYESLFVSETYSYVIFYAKSIYFPQPRCVNNWGNNIPNILTFDSFKLFTANKNNVSCIKQCSRFLWQKDFNTLEEMIEYKNGNICIVTPQLHINDVRDIKSFNDIRLYSHSPIKTFSVIDNTITYLFYFKEHLGVIFNITKSRHDRRVTKFSPLSKFSDVKNITVCFDIESYFDPEKESNQVNIPFICCASIIYNKVIGNIVDFEGRDCVAQMIEYVVDICGELNISSVELIAHNGGGYDFHYILSSMYNPAAIKNILIRNNSFISFNFAHDGVKFSVKDSYSFLLCSLANASKAFLNEETFKKTDFPHHDLKTADDLYKVYKEWSSVNTEINHVVEKEKLLITSEHIVNFTKNDKSKTLIEWSKDYCRNDVLVLSKVWLEFKNAVEDIFNCELVDQTMTLAGLSYKLFQANMPFDVELRHPNKEDYFNMREALIGGRCISVNGIYKDVLCLDVKSLYPASMAFYDQPYGSFKRVSSRPKDELGIYYVRVTPNRNNKSNFFPIRSHNKITYNNFEESTYIAWYTNVDIDIGLSEGHNIEYIPFDSYGNIGYSWSKKGKIFEKYIKDVLYKLKIKYEKQNNKVKRNVIKIIMNSLWGKFAQKWVNFEYFIKSEDDIDFESEEAYKIWDTDFMLIKKIKESTYSSKPIQNGVFTLSWARYHMKSIWDAGAKEGAECIYSDTDSIFVHKEHFKKNAKFMLNGLKVPIIGSEVGQLELECEFDKLLCAGKKQYMGFYTYFQDGKPCIKEKKRFKGIPSNYIIPELYAHLLSGADKEAKIQFLKFRREWGSVKGYIENKTVKAT
B2: I708E: TP-DNAP1 variant (protein)
chain: B1 chain with H298E, I708E
B3: T706P: TP-DNAP1 variant (protein)
chain: B1 chain with H298E, T706P
B4: I708A: TP-DNAP1 variant (protein)
chain: B1 chain with H298E, I708A
B5: I708L: TP-DNAP1 variant (protein)
chain: B1 chain with H298E, I708L
B6: S705F: TP-DNAP1 variant (protein)
chain: B1 chain with H298E, S705F
B7: T706Q: TP-DNAP1 variant (protein)
chain: B1 chain with H298E, T706Q
B8: T706G: TP-DNAP1 variant (protein)
chain: B1 chain with H298E, T706G
B9: T706W: TP-DNAP1 variant (protein)
chain: B1 chain with H298E, T706W
B10: T706R: TP-DNAP1 variant (protein)
chain: B1 chain with H298E, T706R
B11: S705L: TP-DNAP1 variant (protein)
chain: B1 chain with H298E, S705L

For this experiment, the system named is p1. Briefly: p1 copy number by p1-encoded mKate2 fluorescence. It counts as cell-based, S. cerevisiae. The following applies: OR-Y24, measured in triplicate. An outline of the steps:
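Read-out is mKate2 fluorescence of saturated OR-Y24 cultures, measured by flow cytometry or by plate reader with OD600 normalization. Flow values were converted by a qPCR-derived linear calibration; plate values were scaled to a w.t. TP-DNAP1 control.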
For the molecule B1, the “Mean fold-increase over w.t. (p1 copy number)” value (“Mean fold-increase” for short) came out at 2.57 fold. The same measure for B2: 2.41 fold; for B3: 1.73 fold.

As for B4, the “Mean fold-increase” value is given as 2.55 fold. The figure for B5 is 2.16 fold; for B6 it is 1.76 fold; for B7 it is 2.92 fold.

For B8, the “Mean fold-increase” value is 1.72 fold. The same measure for B9: 1.73 fold. B10: the “Mean fold-increase” value is on record as 2 fold. The same measure for B11: 1.98 fold.
